Drawing on PMC8809517, “Cofactor-independent RNA editing by a synthetic S-type PPR protein”, this text covers Kd for four molecules.

Holding throughout (test): high-throughput RNA pulldown from lysate on Ni-NTA beads; HRP: 50 mM Tris pH 8, 150 mM NaCl, 1 mM beta-mercaptoethanol, 50 ug/ml BSA, 3 ug/ml yeast RNA, 0.5% heparin; ITC and FP: Tris pH 8, 200 mM KCl, 5% glycerol; MST: 50 mM Tris pH 8, 200 mM NaCl, 1 mM DTT, BSA, heparin, 0.05% Tween 20
Holding throughout (conditions): tags: N-terminal His-eGFP

The target in data set [1] is T1, GFP-9S library array, motif 4 ND N98Y;D124C (synthetic construct, N98Y;D124C).
T1 chain: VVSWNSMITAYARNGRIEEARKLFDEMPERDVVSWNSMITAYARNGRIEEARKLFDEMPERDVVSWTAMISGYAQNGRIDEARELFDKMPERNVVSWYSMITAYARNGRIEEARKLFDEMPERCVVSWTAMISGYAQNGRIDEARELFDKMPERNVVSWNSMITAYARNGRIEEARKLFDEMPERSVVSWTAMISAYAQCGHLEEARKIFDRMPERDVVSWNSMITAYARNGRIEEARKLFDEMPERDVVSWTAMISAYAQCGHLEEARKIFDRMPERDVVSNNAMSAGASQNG

Data set [2] concerns the target T2, GFP-9S library array, motif 4 ND N98P;D124V (synthetic construct, N98P;D124V).
T2 chain: T1 chain with Y98P, C124V

For data set [3], the target named is T3, GFP-9S library array, motif 4 ND N98W;D124M (synthetic construct, N98W;D124M).
T3 chain: T1 chain with Y98W, C124M

Data set [4] concerns the target T4, GFP-9S library array, motif 4 ND N98Q;D124N (synthetic construct, N98Q;D124N).
T4 chain: T1 chain with Y98Q, C124N

Data set [5] addresses T5, GFP-9S library array, motif 4 ND N98F;D124W (synthetic construct, N98F;D124W).
T5 chain: T1 chain with Y98F, C124W

Residue numbers refer to the chain shown, from its start.

In general, Kd refers to the equilibrium constant for the complex coming apart. Read a high Kd as weaker binding. With AUUAAACGUGA (ssRNA) [IR-rpoA-A], the Kd was 211 nM in data set [1] (label: 5' IRDye 800CW); 407 nM in data set [2] (label: 5' IRDye 800CW); 235 nM in data set [3] (label: 5' IRDye 800CW); 118 nM in data set [4] (label: 5' IRDye 800CW); 236 nM in data set [5] (label: 5' IRDye 800CW).

As to AUUACACGUGA (ssRNA) [Cy5-rpoA], the Kd in data set [1] (label: 5' Cy5) stood at 126 nM; in data set [2] (label: 5' Cy5) it was 121 nM; in data set [3] (label: 5' Cy5), 96.1 nM; in data set [4] (label: 5' Cy5) it was 94.7 nM; in data set [5] (label: 5' Cy5) it was 99.3 nM.

For the molecule AUUAGACGUGA (ssRNA) [Cy5-rpoA-G], the Kd came to 115 nM in data set [1] (label: 5' Cy5); 150 nM in data set [2] (label: 5' Cy5); 102 nM in data set [3] (label: 5' Cy5); 68.6 nM in data set [4] (label: 5' Cy5); 72.2 nM in data set [5] (label: 5' Cy5).

Consider AUUAUACGUGA (ssRNA) [IR-rpoA-U], for which the Kd stood at 271 nM in data set [1] (label: 5' IRDye 800CW); 291 nM in data set [2] (label: 5' IRDye 800CW); 175 nM in data set [3] (label: 5' IRDye 800CW); 99.2 nM in data set [4] (label: 5' IRDye 800CW); 364 nM in data set [5] (label: 5' IRDye 800CW).
